These results are taken from patent US20190271705A1 (published 2019).

The chains are these.
B1: S10A (designed binder)
chain: MKIEEHHHHHHSSGRENLYFQGGAAQPAAPVDSIQAEEWYFGKLGRKDAERQLLSFGNPRGTFLIRESETTKGAYALSIRDWDDMKGDHVKHYKIRKLDNGGYYITTRAQFETLQQLVQHYSERAAGLSSRLVVPSHKGAAA
B2: K2E T8V S10A K15I (designed binder)
chain: B1 chain with K47E, T71V, K94I
B3: S10V (designed binder)
chain: B1 chain with A76V
B4: T8V S10A K15L (designed binder)
chain: B1 chain with T71V, K94L
B5: T8I S10A K15L (designed binder)
chain: B1 chain with T71I, K94L
B6: K15L (designed binder)
chain: B1 chain with A76S, K94L
B7: T8V S10A K15I (designed binder)
chain: B1 chain with T71V, K94I
B8: S10A K15L (designed binder)
chain: B1 chain with K94L
B9: T8V K15L (designed binder)
chain: B1 chain with T71V, A76S, K94L
B10: T7S S10A K15L (designed binder)
chain: B1 chain with T70S, K94L
B11: S10V K15L (designed binder)
chain: B1 chain with A76V, K94L
B12: T8V (designed binder)
chain: B1 chain with T71V, A76S
B13: ΔT8 S10A K15L (designed binder)
chain: B1 chain with A76S
B14: none (wild-type) (other)
chain: B1 chain with A76S

Where a chain is given by its changes, count along the chain named. Names may count otherwise.

The first assay concerns the target VEGFR1-pY1213mod. Put plainly: fluorescence polarization. In general terms: In fluorescence polarisation assays a small probe gives low polarisation when free and higher when bound to something large.
Usually Kd stands for the concentration at which binding is half-saturated. As for B1, the Kd is 5800 nM.

Molecule B2 had a Kd of 580 nM.

Regarding B3, the Kd was 9000 nM.

B4 yielded a dissociation constant (Kd) of 58 nM.

B5 had a dissociation constant Kd of 180 nM.

Molecule B6 yielded a Kd of 2800 nM.

Take B7: the dissociation constant (Kd) amounted to 410 nM.

As to B8, the Kd was 400 nM.

Take B9: the dissociation constant Kd was found to be 440 nM.

As for B10, the Kd came to 640 nM.

B11 showed a Kd of 1600 nM.

The molecule B12 had a Kd of 24000 nM.

Another assay addresses TRAF7-pY275mod. Put plainly: fluorescence polarization.
In turn, B1 showed a Kd of 1300 nM.

B13 gave a dissociation constant (Kd) of 2700 nM.

Consider B2, for which the dissociation constant (Kd) was 990 nM.

For the molecule B3, the Kd came to 4500 nM.

B4 had a Kd of 60 nM.

Turning to B5, the equilibrium dissociation constant (Kd) amounted to 330 nM.

In turn, B6 came in with an equilibrium dissociation constant (Kd) of 2200 nM.

B7: the Kd was found to be 450 nM.

Molecule B8 came in with a Kd of 480 nM.

With B9, the dissociation constant Kd is 450 nM.

For B10, the Kd was 300 nM.

Molecule B14 came in with a Kd of 6000 nM.

B11: the affinity, expressed as Kd, was 2100 nM.

Turning to B12, the affinity, expressed as Kd, was 5800 nM.

Another assay concerns the target SIG11-pY668. The assay is described as follows: fluorescence polarization.
Take B1: the dissociation constant (Kd) was found to be 48 nM.

Take B13: binding was put at a Kd of 550 nM.

On to B2, for which the Kd was determined as 900 nM.

B3 registered a Kd of 660 nM.

B4 had an equilibrium dissociation constant (Kd) of 26 nM.

In the case of B5, the Kd is 120 nM.

The molecule B6 registered a Kd of 450 nM.

Molecule B7 came in with a dissociation constant (Kd) of 190 nM.

Turning to B8, the Kd turned out to be 120 nM.

B9: the affinity, expressed as Kd, was 150 nM.

Molecule B10 displayed a Kd of 71 nM.

With B14, the Kd turned out to be 430 nM.

Molecule B11 displayed a dissociation constant (Kd) of 320 nM.

B12 came in with an equilibrium dissociation constant (Kd) of 1200 nM.

A further assay deals with RSKL-pY423. The assay is described as follows: fluorescence polarization.
Molecule B1 displayed a dissociation constant (Kd) of 2500 nM.

The molecule B13 returned a Kd of 6100 nM.

B2 came in with a Kd of 2500 nM.

B3 came in with a dissociation constant Kd of 6500 nM.

B4 showed a Kd of 77 nM.

B5 had a Kd of 190 nM.

For the molecule B6, the affinity, expressed as Kd, was 3300 nM.

B7: binding was put at a Kd of 880 nM.

In turn, B8 registered a Kd of 1600 nM.

On to B9, for which the Kd worked out at 530 nM.

B10 returned a Kd of 1500 nM.

As to B14, the Kd is 12000 nM.

Turning to B11, binding was characterised by a dissociation constant (Kd) of 1500 nM.

For the molecule B12, the equilibrium dissociation constant (Kd) worked out at 14000 nM.

For another assay, the target named is EGFR-pY978. The assay is described as follows: fluorescence polarization.
B1: the dissociation constant Kd came to 1100 nM.

In turn, B2 displayed a dissociation constant Kd of 170 nM.

B3 registered a Kd of 5500 nM.

For B4, the dissociation constant Kd was found to be 8.5 nM.

Consider B5, for which the Kd is 32 nM.

The molecule B6 showed a Kd of 670 nM.

Molecule B7 registered a Kd of 130 nM.

Molecule B8 registered an equilibrium dissociation constant (Kd) of 130 nM.

As for B9, the dissociation constant Kd turned out to be 120 nM.

In turn, B10 registered an equilibrium dissociation constant (Kd) of 210 nM.

In turn, B11 came in with a dissociation constant Kd of 430 nM.

On to B12, for which the Kd is 2400 nM.

Another assay concerns the target EGFR-pY1110. The assay is described as follows: fluorescence polarization.
The molecule B1 came in with a Kd of 13000 nM.

Consider B13, for which the dissociation constant (Kd) was 15000 nM.

For the molecule B2, the Kd worked out at 3800 nM.

As to B3, the affinity, expressed as Kd, was 34000 nM.

B4 had a dissociation constant (Kd) of 340 nM.

The molecule B5 showed a dissociation constant Kd of 700 nM.

With B6, the Kd came out at 5800 nM.

Turning to B7, the affinity, expressed as Kd, was 1400 nM.

Consider B8, for which the Kd turned out to be 2000 nM.

Take B9: the Kd came out at 1700 nM.

For the molecule B10, the Kd turned out to be 1600 nM.

Molecule B14 came in with a Kd of 26000 nM.

B11 displayed a Kd of 4400 nM.

B12 registered a dissociation constant (Kd) of 41000 nM.

A further assay deals with MidT-pY324. The assay is described as follows: fluorescence polarization.
For the molecule B1, binding was characterised by a dissociation constant (Kd) of 120 nM.

Take B13: binding was characterised by a dissociation constant (Kd) of 260 nM.

Regarding B2, the Kd amounted to 280 nM.

B3 had a Kd of 360 nM.

B4 gave a dissociation constant Kd of 11 nM.

As to B5, binding was characterised by a dissociation constant (Kd) of 43 nM.

B6 registered a Kd of 420 nM.

B7: the dissociation constant (Kd) turned out to be 98 nM.

Molecule B8 came in with a Kd of 110 nM.

Molecule B9 returned a Kd of 140 nM.

Regarding B10, the Kd was determined as 49 nM.

B14 returned a dissociation constant (Kd) of 490 nM.

The molecule B11 displayed a dissociation constant Kd of 94 nM.

In the case of B12, the Kd was found to be 370 nM.
